Numbered stars: 1 amine (or outer) side, 2 acyl side, 3 side chain; on linkers, the order of the positions; unused ones are H or OH. Side chains are listed from the residue outwards. Ends that are not written are not given here. * marks the point of attachment. γGlu = O=C(O)[C@H](CCC(=O)[*:2])N[*:1]; Palmitoyl = CCCCCCCCCCCCCCCC(=O)*; Ahx = NCCCCCC(=O)O; βAla = NCCC(=O)O
T1: human glucose-dependent insulinotropic peptide (gastric inhibitory polypeptide) receptor (human) (UniProt P48546)
T1 sequence (looked up): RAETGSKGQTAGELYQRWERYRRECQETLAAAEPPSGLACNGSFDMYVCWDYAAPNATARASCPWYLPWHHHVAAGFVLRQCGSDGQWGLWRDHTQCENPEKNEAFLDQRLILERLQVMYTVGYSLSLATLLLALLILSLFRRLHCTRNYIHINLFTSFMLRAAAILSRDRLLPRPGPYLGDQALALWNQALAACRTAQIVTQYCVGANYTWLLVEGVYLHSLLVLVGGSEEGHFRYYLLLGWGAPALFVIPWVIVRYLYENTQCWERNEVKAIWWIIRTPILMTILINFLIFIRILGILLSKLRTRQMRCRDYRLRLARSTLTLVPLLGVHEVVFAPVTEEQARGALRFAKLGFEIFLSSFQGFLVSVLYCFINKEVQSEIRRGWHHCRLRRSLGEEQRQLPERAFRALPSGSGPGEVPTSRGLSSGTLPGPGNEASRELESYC


Experiments:
Test in all cases: cell-based or functional assay
[1] = target: human glucagon receptor (human, UniProt P47871 26-477)
[2] = target: human GLP-1 receptor (human, UniProt P43220 24-463)
[3] = target: T1, human glucose-dependent insulinotropic peptide (gastric inhibitory polypeptide) receptor (human)

Chain of human glucagon receptor (P47871 26-477): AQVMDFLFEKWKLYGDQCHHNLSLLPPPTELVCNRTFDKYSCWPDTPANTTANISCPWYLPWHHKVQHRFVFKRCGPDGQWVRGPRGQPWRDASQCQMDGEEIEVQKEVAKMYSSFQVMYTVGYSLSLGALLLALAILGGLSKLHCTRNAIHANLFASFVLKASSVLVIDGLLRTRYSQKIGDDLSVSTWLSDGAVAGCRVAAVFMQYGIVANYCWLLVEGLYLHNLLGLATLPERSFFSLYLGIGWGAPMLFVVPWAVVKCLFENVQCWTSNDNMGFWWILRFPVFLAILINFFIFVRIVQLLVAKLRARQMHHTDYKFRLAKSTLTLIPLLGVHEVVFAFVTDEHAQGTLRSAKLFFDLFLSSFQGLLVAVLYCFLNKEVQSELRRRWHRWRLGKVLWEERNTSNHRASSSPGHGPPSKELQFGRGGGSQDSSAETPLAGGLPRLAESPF
Chain of human GLP-1 receptor (P43220 24-463): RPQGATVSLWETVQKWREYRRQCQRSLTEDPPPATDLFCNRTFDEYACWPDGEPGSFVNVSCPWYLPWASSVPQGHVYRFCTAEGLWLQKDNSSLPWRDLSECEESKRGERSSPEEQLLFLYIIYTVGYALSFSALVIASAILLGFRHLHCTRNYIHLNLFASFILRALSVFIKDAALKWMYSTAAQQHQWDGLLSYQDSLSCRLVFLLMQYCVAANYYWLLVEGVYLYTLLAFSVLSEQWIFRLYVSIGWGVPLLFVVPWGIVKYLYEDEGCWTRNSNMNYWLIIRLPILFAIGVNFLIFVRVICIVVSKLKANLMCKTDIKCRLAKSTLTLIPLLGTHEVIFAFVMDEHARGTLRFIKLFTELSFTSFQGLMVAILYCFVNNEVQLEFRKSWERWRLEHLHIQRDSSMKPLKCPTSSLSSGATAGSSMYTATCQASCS

Binder	cAMP EC50 (assay 1) [1] [pM]	cAMP EC50 (assay 1) [2] [pM]	cAMP EC50 (assay 1) [3] [pM]
HSQGTFTSDYSEYLDSK([βAla-Palmitoyl])RARDFVAWLEAGG-NH2 (N-terminus assumed; SMILES CCCCCCCCCCCCCCCC(=O)NCCC(=O)NCCCC[C@H](NC(=O)[C@H](CO)NC(=O)[C@H](CC(=O)O)NC(=O)[C@H](CC(C)C)NC(=O)[C@H](Cc1ccc(O)cc1)NC(=O)[C@H](CCC(=O)O)NC(=O)[C@H](CO)NC(=O)[C@H](Cc1ccc(O)cc1)NC(=O)[C@H](CC(=O)O)NC(=O)[C@H](CO)NC(=O)[C@@H](NC(=O)[C@H](Cc1ccccc1)NC(=O)[C@@H](NC(=O)CNC(=O)[C@H](CCC(N)=O)NC(=O)[C@H](CO)NC(=O)[C@@H](N)Cc1c[nH]cn1)[C@@H](C)O)[C@@H](C)O)C(=O)N[C@@H](CCCNC(=N)N)C(=O)N[C@@H](C)C(=O)N[C@@H](CCCNC(=N)N)C(=O)N[C@@H](CC(=O)O)C(=O)N[C@@H](Cc1ccccc1)C(=O)N[C@H](C(=O)N[C@@H](C)C(=O)N[C@@H](Cc1c[nH]c2ccccc12)C(=O)N[C@@H](CC(C)C)C(=O)N[C@@H](CCC(=O)O)C(=O)N[C@@H](C)C(=O)NCC(=O)NCC(N)=O)C(C)C) [g783]	91.1	42.4	846000
HSQGTFTSDYSKYLDSK([βAla-Palmitoyl])RARDFVAWLEAGG-NH2 (N-terminus assumed; SMILES CCCCCCCCCCCCCCCC(=O)NCCC(=O)NCCCC[C@H](NC(=O)[C@H](CO)NC(=O)[C@H](CC(=O)O)NC(=O)[C@H](CC(C)C)NC(=O)[C@H](Cc1ccc(O)cc1)NC(=O)[C@H](CCCCN)NC(=O)[C@H](CO)NC(=O)[C@H](Cc1ccc(O)cc1)NC(=O)[C@H](CC(=O)O)NC(=O)[C@H](CO)NC(=O)[C@@H](NC(=O)[C@H](Cc1ccccc1)NC(=O)[C@@H](NC(=O)CNC(=O)[C@H](CCC(N)=O)NC(=O)[C@H](CO)NC(=O)[C@@H](N)Cc1c[nH]cn1)[C@@H](C)O)[C@@H](C)O)C(=O)N[C@@H](CCCNC(=N)N)C(=O)N[C@@H](C)C(=O)N[C@@H](CCCNC(=N)N)C(=O)N[C@@H](CC(=O)O)C(=O)N[C@@H](Cc1ccccc1)C(=O)N[C@H](C(=O)N[C@@H](C)C(=O)N[C@@H](Cc1c[nH]c2ccccc12)C(=O)N[C@@H](CC(C)C)C(=O)N[C@@H](CCC(=O)O)C(=O)N[C@@H](C)C(=O)NCC(=O)NCC(N)=O)C(C)C) [g819]	2.34	18	103000
HSQGTFTSDYSEYLDSK([Ahx-Palmitoyl])RARDFVEWLENT-NH2 (not fully specified) [g825]	3.67	19.1	86700
HGQGTFTSDYSKYLDSK([γGlu-Palmitoyl])RAQDFVQWLERGG-NH2 (N-terminus assumed; SMILES CCCCCCCCCCCCCCCC(=O)N[C@@H](CCC(=O)NCCCC[C@H](NC(=O)[C@H](CO)NC(=O)[C@H](CC(=O)O)NC(=O)[C@H](CC(C)C)NC(=O)[C@H](Cc1ccc(O)cc1)NC(=O)[C@H](CCCCN)NC(=O)[C@H](CO)NC(=O)[C@H](Cc1ccc(O)cc1)NC(=O)[C@H](CC(=O)O)NC(=O)[C@H](CO)NC(=O)[C@@H](NC(=O)[C@H](Cc1ccccc1)NC(=O)[C@@H](NC(=O)CNC(=O)[C@H](CCC(N)=O)NC(=O)CNC(=O)[C@@H](N)Cc1c[nH]cn1)[C@@H](C)O)[C@@H](C)O)C(=O)N[C@@H](CCCNC(=N)N)C(=O)N[C@@H](C)C(=O)N[C@@H](CCC(N)=O)C(=O)N[C@@H](CC(=O)O)C(=O)N[C@@H](Cc1ccccc1)C(=O)N[C@H](C(=O)N[C@@H](CCC(N)=O)C(=O)N[C@@H](Cc1c[nH]c2ccccc12)C(=O)N[C@@H](CC(C)C)C(=O)N[C@@H](CCC(=O)O)C(=O)N[C@@H](CCCNC(=N)N)C(=O)NCC(=O)NCC(N)=O)C(C)C)C(=O)O) [g588]	72.3	110	98000

Source: patent US20190185537A1 (AstraZeneca / MedImmune, published 2019)
